Values belong to the compound of their own block, whether it stands above or below them.
Legend:
[1] = target: FRB-CtermEYFP173 (human; Aequorea victoria) (UniProt P42345); assay: cell-based or functional assay
[2] = target: FKBP / FRB (FKBP binding part of FRAP) interaction (Homo sapiens, UniProt P42345+P62942); assay: Rapamycin-induced E[F64L]YFP fragment complementation (EYFP fluorescence) in stably transfected CHO-hIR cells; assay type: cell-based; conditions: CHO-hIR [PS1767+PS1768], 1 μM rapamycin
Method: Probes were co-transfected in pairs into CHO-hIR cells (supra), PS1769 with PS1771 and PS1767 with PS1768, using the transfection agent FuGENE™ 6 (Boehringer Mannheim Corp, USA) according to the method recommended by the suppliers. Cells were cultured in growth medium (HAM's F12 nutrient mix with Glutamax-1, 10% foetal bovine serum (FBS), 100 μg penicillin-streptomycin mixture ml^−1 (GibcoBRL, supplied by Life Technologies, Denmark)). Transfected cells were cultured in this medium, with the addition of two selection agents appropriate to the plasmids being used, being 1 mg/ml zeocin plus 0.5 mg/mlG418 sulphate. […]
After 10 to 12 days culture in the continuous presence of the selection agents, the resulting cell lines were judged to be stably transfected. For fluorescence microscopy, aliquots of cells were transferred to Lab-Tek chambered cover glasses (Nalge Nunc International, Naperville USA) and allowed to adhere for at least 24 hours to reach about 80% confluence. Images were routinely collected using a Nikon Diaphot 300 inverted fluorescence microscope (Nikon Corp., Tokyo, Japan) using ×20 (dry) and/or ×40 (oil immersion) objectives and coupled to a Orca ER charged coupled device (CCD) camera (Hammamatsu Photonics K. K., Hammamatsu City, Japan). […]
This is easily accomplished through fluorescence activated cell sorting (FACS) methods. […]

[3] = target: FKBP-CtermEYFP173 (human; Aequorea victoria) (UniProt P62942); assay: cell-based or functional assay
FKBP-CtermEYFP173 (human; Aequorea victoria), sequence (P62942 other isoform, or with tags, fused parts or gaps, form in doubt): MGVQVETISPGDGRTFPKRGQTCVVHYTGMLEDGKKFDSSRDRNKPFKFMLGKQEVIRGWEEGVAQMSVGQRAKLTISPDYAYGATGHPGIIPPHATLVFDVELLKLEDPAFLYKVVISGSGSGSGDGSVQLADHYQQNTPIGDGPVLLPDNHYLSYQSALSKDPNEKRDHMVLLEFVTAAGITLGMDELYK

- EC50 of FK506 against 100 nM rapamycin, EYFP fluorescence/cell, 'black' FACS group [1]: 1200 nM
Compound: NtermE[F64L]YFP172-FKBP (from UniProt P62942 1-108)

- Proportion of cells with significantly greater EYFP fluorescence ([2]; after 4 hours): approximately 40%
- Proportion of the cell population encompassed by the EYFP fluorescence response ([2]; after 16 hours): approximately 70%
Compound: CO[C@H]1C[C@@H]2CC[C@@H](C)[C@@](O)(O2)C(=O)C(=O)N2CCCC[C@H]2C(=O)O[C@H]([C@H](C)C[C@@H]2CC[C@@H](O)[C@H](OC)C2)CC(=O)[C@H](C)/C=C(\C)[C@@H](O)[C@@H](OC)C(=O)[C@H](C)C[C@H](C)/C=C/C=C/C=C/1C [rapamycin]

- EC50 of FK506 against 100 nM rapamycin, EYFP fluorescence/cell, 'mid to low-green' FACS group [3]: 1200 nM
- EC50 of rapamycin for EYFP fluorescence, 'black' FACS group, 7 and 30 hours [3]: 100 nM
- EC50 of rapamycin for EYFP fluorescence, 'medium to low-green' FACS group, 7 and 30 hours [3]: 250 nM
- half-time for development of fluorescence after 3 uM rapamycin [3]: 5 h
- increase in EYFP fluorescence over the unstimulated value, 'black' FACS group [3]: > 20 fold
- increase in EYFP fluorescence over the unstimulated value, 'medium to low-green' FACS group [3]: > 20 fold
- proportion of cells with appreciable EYFP fluorescence before rapamycin (t=0) [3]: < 5%
- proportion of cells with significantly greater EYFP fluorescence 4 hours after 1 uM rapamycin [3]: 40%
- proportion of responding cells 16 hours after 1 uM rapamycin [3]: 70%
Compound: NtermE[F64L]YFP172-FRB (from UniProt P42345 2025-2114)
